Data reported in paper doi:10.1101/2022.05.31.494111.
Like-named read-outs stand apart in the source and are kept apart here.

Experiments:
[1] = biological target: CrIFT81_(152-C)/74_(150-C)/27/25_(1-136) complex (Chlamydomonas reinhardtii) (UniProt Q68RJ5); test: ITC
[2] = biological target: minimal CrIFT81_(460-533)/CrIFT74_(460-532) complex (Chlamydomonas reinhardtii) (UniProt Q68RJ5)
[3] = biological target: Chlamydomonas reinhardtii RabL2, wild type (Chlamydomonas reinhardtii); test: ITC
[4] = biological target: Chlamydomonas reinhardtii RabL2, wild type (Chlamydomonas reinhardtii); test: ITC; remark: listed apart in the source

CrIFT81_(152-C)/74_(150-C)/27/25_(1-136) complex (Chlamydomonas reinhardtii), sequence (Q68RJ5 152-683, chain 1 of 4): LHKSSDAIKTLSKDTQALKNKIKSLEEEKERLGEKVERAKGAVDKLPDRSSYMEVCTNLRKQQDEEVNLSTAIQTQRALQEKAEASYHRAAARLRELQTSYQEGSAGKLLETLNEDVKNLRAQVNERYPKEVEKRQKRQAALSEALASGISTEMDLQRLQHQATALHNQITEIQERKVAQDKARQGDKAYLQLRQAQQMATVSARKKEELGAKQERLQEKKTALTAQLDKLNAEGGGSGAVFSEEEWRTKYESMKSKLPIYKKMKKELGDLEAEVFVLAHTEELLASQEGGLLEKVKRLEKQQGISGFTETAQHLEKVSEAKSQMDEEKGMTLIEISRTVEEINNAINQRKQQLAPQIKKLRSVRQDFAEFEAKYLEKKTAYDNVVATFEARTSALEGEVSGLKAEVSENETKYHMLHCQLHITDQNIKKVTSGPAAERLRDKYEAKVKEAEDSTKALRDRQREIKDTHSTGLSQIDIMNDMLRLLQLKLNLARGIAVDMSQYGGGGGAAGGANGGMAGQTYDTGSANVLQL
CrIFT81_(152-C)/74_(150-C)/27/25_(1-136) complex (Chlamydomonas reinhardtii), sequence (Q6RCE1 150-641, chain 2 of 4, further chain): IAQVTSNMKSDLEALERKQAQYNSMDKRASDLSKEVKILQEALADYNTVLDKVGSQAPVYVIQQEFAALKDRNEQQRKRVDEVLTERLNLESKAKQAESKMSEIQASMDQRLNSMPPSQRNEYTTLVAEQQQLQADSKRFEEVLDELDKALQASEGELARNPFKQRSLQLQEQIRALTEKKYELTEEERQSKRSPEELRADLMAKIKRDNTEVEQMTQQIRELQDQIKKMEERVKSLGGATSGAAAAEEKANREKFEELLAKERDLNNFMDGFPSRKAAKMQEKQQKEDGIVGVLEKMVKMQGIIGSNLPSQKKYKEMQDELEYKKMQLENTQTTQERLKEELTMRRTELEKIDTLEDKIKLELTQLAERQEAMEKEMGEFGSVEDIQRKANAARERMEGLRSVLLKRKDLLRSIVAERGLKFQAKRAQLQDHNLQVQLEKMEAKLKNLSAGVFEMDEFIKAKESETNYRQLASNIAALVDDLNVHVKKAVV
CrIFT81_(152-C)/74_(150-C)/27/25_(1-136) complex (Chlamydomonas reinhardtii), sequence (A8HN58 whole entry, chain 3 of 4, further chain): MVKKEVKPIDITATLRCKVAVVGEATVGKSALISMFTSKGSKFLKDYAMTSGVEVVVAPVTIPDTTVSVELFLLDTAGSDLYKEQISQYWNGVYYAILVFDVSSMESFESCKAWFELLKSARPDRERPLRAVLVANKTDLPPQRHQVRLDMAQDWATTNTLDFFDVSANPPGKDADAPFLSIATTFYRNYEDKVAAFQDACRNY
CrIFT81_(152-C)/74_(150-C)/27/25_(1-136) complex (Chlamydomonas reinhardtii), sequence (B8LIX8 1-136, chain 4 of 4, further chain): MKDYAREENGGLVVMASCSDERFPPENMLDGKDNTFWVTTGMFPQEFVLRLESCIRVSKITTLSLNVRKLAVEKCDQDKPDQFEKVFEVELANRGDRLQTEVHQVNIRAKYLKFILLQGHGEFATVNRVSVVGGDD
minimal CrIFT81_(460-533)/CrIFT74_(460-532) complex (Chlamydomonas reinhardtii), sequence (Q68RJ5 460-533, chain 1 of 2): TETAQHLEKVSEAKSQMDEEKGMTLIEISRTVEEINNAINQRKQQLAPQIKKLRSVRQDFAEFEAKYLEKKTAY
minimal CrIFT81_(460-533)/CrIFT74_(460-532) complex (Chlamydomonas reinhardtii), sequence (Q6RCE1 460-532, chain 2 of 2, further chain): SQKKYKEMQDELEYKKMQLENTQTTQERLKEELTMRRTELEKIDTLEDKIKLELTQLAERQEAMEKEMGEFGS

Question: With “Chlamydomonas reinhardtii RabL2 Q83L (GTP-locked mutant) (natural protein)” as the substance, how does the Kd [1] read?
Answer: 590 nM

Question: “Chlamydomonas reinhardtii RabL2, wild type (natural protein)” was tested. Which GTPase rate of RabL2 with IFT81 (460-533)/74 (460-532) against RabL2 alone [2] did it give?
Answer: 5 fold

Question: For “Chlamydomonas reinhardtii CEP19 residues 1-208 (domain or fragment)”, which Kd [3] is on record?
Answer: 12.7 µM

Question: And the Kd [4]?
Answer: 280 nM
